Measured values as given in the DeepSol protein solubility set.

test: soluble on expression in E. coli; label from the status in PepcDB or PDB records

Question: For “MRTLFYSQLMYEAAKRQPHPHRCADGRTIADLSAQDLKKLNIAQLFFVAGRESEASYGDAYHRYHLYGAKQFEEYARKHLTHLFSEKEIVLYSRCIEDRIGDRFDETAEGYLIHLSHMIDLMRCKSPVEVFIGHSRGVSGIVPTLIQLFGREDGLDIMHYARSLFAATGEAVPYISSSEWPHLGIESDRVERALKIVGPLEVEGQEADAKKTAQAGFSVDGCYGALVKVDTPDWYHQVKEKEDYDVDEVIALPPQITIREEPPKANESFLLSLLRHVFWCCPSNQKRDDENTDVLEKKAQL”, which “soluble on expression in E. coli” value is on record?
Answer: not soluble

Question: For “MDGKLLWSFNSGDAVRSVAISRDGDYVATGSANNYVYLLDSEGKTLWGKKTGSLINSVTMTPNAYYVAAGGSNYNVYLFDRKGEFSWMHNPGYWVSSVSLSSNGSHLAAGSFDDRIYLFNLTGAKLWDYQVKDDVYAVEIAPDSSFIAAGSWDDSIYALNMSGKELEHHHHHH”, which “soluble on expression in E. coli” value is on record?
Answer: not soluble

Question: Which “soluble on expression in E. coli” value does the source give for “MPAVTQPRGESKYDAIPGPLGPQSASLEGKVALVTGAGRGIGREMAMELGRRGCKVIVNYANSTESAEEVVAAIKKNGSDAACVKANVGVVEDIVRMFEEAVKIFGKLDIVCSNSGVVSFGHVKDVTPEEFDRVFTINTRGQFFVAREAYKHLEIGGRLILMGSITGQAKAVPKHAVYSGSKGAIETFARCMAIDMADKKITVNVVAPGGIKTDMYHAVCREYIPNGENLSNEEVDEYAAVQWSPLRRVGLPIDIARVVCFLASNDGGWVTGKVIGIDGGACM” here?
Answer: soluble

Question: For “MSLRIAIVGAGALGLYYGALLQRSGEDVHFLLRRDYEAIAGNGLKVFSINGDFTLPHVKGYRAPEEIGPMDLVLVGLKTFANSRYEELIRPLVEEGTQILTLQNGLGNEEALATLFGAERIIGGVAFLCSNRGEPGEVHHLGAGRIILGEFLPRDTGRIEELAAMFRQAGVDCRTTDDLKRARWEKLVWNIPFNGLCALLQQPVNLILARDVSRKLVRGIMLEVIAGANAQGLATFIADGYVDDMLEFTDAMGEYKPSMEIDREEGRPLEIAAIFRTPLAYGAREGIAMPRVEMLATLLEQATGEGHHHHHH”, which “soluble on expression in E. coli” value is on record?
Answer: soluble

Question: Which “soluble on expression in E. coli” value does the source give for “MPPKQQLSKAAKAAAALAGGKKSKKKWSKKSMKDRAQHAVILDQEKYDRILKEVPTYRYVSVSVLVDRLKIGGSLARIALRHLEKEGIIKPISKHSKQAIYTRATASE” here?
Answer: soluble

Question: With “MGSDKIHHHHHHMKKVRAAIVGYGNIGHYVLEALQAAPDFEIAGVVRRAGAENKPEELANYAVVKDIKELEGVEVAILCTPTRSVEKYAKEYLAMGINTVDSFDIHTGIVDLRRTLDATAKEHKAVSIISAGWDPGSDSIVRTMLEAIAPKGITYTNFGPGMSMGHTVAVKAIDGVKAALSMTIPTGTGIHRRMVYIELKDGYKFEEVAAAIKADPYFVNDETHVKLVPSVDALLDMGHGVNLTRKGVSGKTQNQLFEFNMRINNPALTAQVLVCVARASMKQQPGCYTMVEVPVIDLLPGDREEWIGHLV” as the sequence, how does the “soluble on expression in E. coli” value read?
Answer: not soluble

Question: Which “soluble on expression in E. coli” value does the source give for “VERAQDGLYTIDERGVIDFCNDSFAATLGYEPGKLCGTHILEVLAPGEFPKGQAAVEELLEAPDQESTTVDLTFRRKDGAERELSFNHTLTHDEAGNYNGVIGVARDVT” here?
Answer: not soluble

Question: For “MRDEISSRIRRLPAGMSGGRAPDFALAVYGGAFDPPHPGHESVIRRALLCAERVALVPSHRHAFGKRMGDFELRCRWLARLARRIDPRRVYCEPIEAGLMPDRPAVYSIDLLEALAARSGLASARIALLIGADNEAELPRFERAAELCWRFGRLVAEERLPLHSSMIRQRLREGLAVPEAWCLPEVKDELHCYGGERQAV”, which “soluble on expression in E. coli” value is on record?
Answer: not soluble

Question: With “MGSDKIHHHHHHMERLDVFDCSNVLIASYFTDDRGCAHENREHTLIYLCSGELEIEERGKKTVLHPGDCAFMRRDNRMWLQKKVEDGKPYRSVVLKFSRPFLREFYQTLNRQQIPTDSEREKVSLRVLPSNRPDIRSLFESVIPYFDAGEKPSEDVLKLKMVEGIYVLLNTDRNLYASLFDFVEPWKIDILDYLNENYMCDLSLEEIASYTGRSLATFKRDFAKVSNLTPQKWIVKRRLEAAHGLIKSGKKKVTEACFDVGFKNLSHFSKIYKEAYGVAPSW” as the sequence, how does the “soluble on expression in E. coli” value read?
Answer: not soluble

Question: Which “soluble on expression in E. coli” value does the source give for “MPPADGTSQWLRKTVDSAAVILFSKTTCPYCKKVKDVLAEAKIKHATIELDQLSNGSAIQKCLASFSKIETVPQMFVRGKFIGDSQTVLKYYSNDELAGIVNESKYDYDLIVIGGGSGGLAAGKEAAKYGAKTAVLDYVEPTPIGTTWGLGGTCVNVGCIPKKLMHQAGLLSHALEDAEHFGWSLDRSKISHNWSTMVEGVQSHIGSLNWGYKVALRDNQVTYLNAKGRLISPHEVQITDKNQKVSTITGNKIILATGERPKYPEIPGAVEYGITSDDLFSLPYFPGKTLVIGASYVALECAGFLASLGGDVTVMVRSILLRGFDQQMAEKVGDYMENHGVKFAKLCVPDEIKQLKVVDTENNKPGLLLVKGHYTDGKKFEEEFETVIFAVGREPQLSKVLCETVGVKLDKNGRVVCTDDEQTTVSNVYAIGDINAGKPQLTPVAIQAGRYLARRLFAGATELTDYSNVATTVFTPLEYGACGLSEEDAIEKYGDKDIEVYHSNFKPLEWTVAHREDNVCYMKLVCRKSDNMRVLGLHVLGPNAGEITQGYAVAIKMGATKADFDRTIGIHPTCSETFTTLHVTKKSGVSPIVSGCCG” here?
Answer: soluble

Question: With “MTAPRDVRVRTLSLLLPEPGRKGRLAAISAAVCHRRDMATYRYLDKDRNVLEEQDFGTVQDAEEHRLSVLGAEIIEEVEDSGTPES” as the sequence, how does the “soluble on expression in E. coli” value read?
Answer: not soluble

Question: For “MSRSLLTNETSELDLLDQRPFEQTDFDILKSYEAVVDGLAMLIGSHCEIVLHSLQDLKCSAIRIANGEHTGRKIGSPITDLALRMLHDMTGADSSVSKCYFTRAKSGVLMKSLTIAIRNREQRVIGLLCINMNLDVPFSQIMNTFIPPETPEVGSAVNFASSVEDLVTQTLEFTIEEVNADRNVSNNAKNRQIVLNLYEKGIFDIKDAINQVADRLNISKHTVYLYIRQFKSGDFQGQDK”, which “soluble on expression in E. coli” value is on record?
Answer: not soluble

Question: With “MIWIINISWMHSIFDFISMLINRNHFSKWSISNGRHVSFCNWVFTYTNICSKSFNYRRRSCFKNISISYPFCRIHSIFNKFFTYFIISNCSCPTHRLFCIWRSLFTRSLEHHHHHH” as the sequence, how does the “soluble on expression in E. coli” value read?
Answer: not soluble

Question: With “MGSDKIHHHHHHMAKFDIITIEDKIQQLLEDGFDQASFIYEFLSFYDISKTAITRIRKEQSGEIKNKLYYKTVPTDKSVVAGVAEIEEAIKDKKSQPRYIIVTNFVDFAAKDTKTFDTLQIPFKDLPTYADFFLAWNGVEKVDYAKENPADIKAAERFTRLYDELKKINHFDDRSQEEKEFNLFLIRLLFLLFAEDTEIMKKGIFTNAIKTRSREDGSDLNTLFNQIFASLDIANRLSQENWLQEFPYVNGKLFTDASTDLVFDKKTRKLILEAGELLNWNEINPDILGAMIQTVASSEHRSSSGMHYTSVENIMKVIKPLFLDELTANFQTIVDKINENEDKDITERTRRENRAAYEKELSTLHEHLSKIKFFDPACGSGNFLIITYKELRRLEIRLLKALRELRQDGKIDFFETSKISLNQFYGIELDDFAHEVARLSLWIAEYQMNLEALNEINLQSAFLPLRDAGNITQGNALRLDWDKVVPHTPTDEIYLIGNPPYIGAKIAK” as the sequence, how does the “soluble on expression in E. coli” value read?
Answer: not soluble

Question: With “TEELEKAYDSLKESEEHLRLTLEGSKAGMWMWDLRANWKITPQMNALLGRSESSPIKYEEFISMIHPEDQERVAQAWNKAIECKDFYDQEYRIFLPDGSIHWLSSKGSVIELHSGIRQLMGITTDIT” as the sequence, how does the “soluble on expression in E. coli” value read?
Answer: not soluble

Question: For “MIAKISHGSSLYGVLAYNQLKVDERHADVLFTSRIIEPQGDNPYTIGHLSRSFGDYLTANRKTEKPVLHISLNPDPKDCLSEERFVSLAEEYMRRMGFGDQPYIVYRHNDIGREHLHIVSVRVDETGRAISDSYEHGRSMKVCRELERQFGLVLATPKQWKEGLPLSPVGYGDGNLKGQLAGVIRPIAREWRFRTLGEYRAVLSLYGITVDEVKGEYGGREYHGLTYSATDREGNKIGKPFKSSVFGKETGVAALERRMHNAAAWEKTHKEVAAATAGKVAAAMQTAGHDRAQFERELMRQGIGVVFRQNETGRIYGATFIDHAAKAVFNGSRLGKEFSAGVFNDLFAGQEGIHLPQPSAEVEHPTRQQEHTDISQWDGQDTGYRPDHKDGTTQNVAAAFNLFAPVPGGASGDQPVPLRKRKKKRKYGRQQLEHHHHHH”, which “soluble on expression in E. coli” value is on record?
Answer: not soluble

Question: Which “soluble on expression in E. coli” value does the source give for “MSLEYNLTTTEIELVNVTASWDEGIGELFEKIKQENKANGQPNGDAGLFFTNLYVTPVLKNISLYLEKGQMLAVAGSTGSGKSSLLMMILGELVPSEGKIRHSGRISFSPQTSWIMPGTIRDNILFGLTYDEFRYTSVIKACQLEEDLALLPEKDKTPLMEGGVTLSGGQRARIGLARAVYKDADLYLLDSPFTHLDIVTEKEIFERCLCKLLSSKTRIVVTSKLEHLKRADKILLLHNGVCYFYGSFSELQAKRPDFSSLLLGLEAYDNIKAERRSSILTETLRRVSIDESTVFRGEGHHHHHH” here?
Answer: soluble

Question: For “GSSCPGKSSWPHLVGVGGSVAKAIIERQNPNVKAVILEEGTPVTKDFRCNRVRIWVNKRGLVVSPPRIG”, which “soluble on expression in E. coli” value is on record?
Answer: soluble

Question: Which “soluble on expression in E. coli” value does the source give for “MSLSQPSFGLSNTATQGTLGQQSLVQPQNQQPQLAAQQLQSQQLSRYPQLIQEQILKCKESWDSNSYKTSLRSFVYNKVNETDAILYTKPTNVSQEEWDKAIENKPSSDLIPIQVFGFEGLNNRNQIQVENVAQARVILNQILDKTKQLQQSHSFETSARIMKVQARNAQIEKRILKLGTQLAILKNRRLPLTISEEKMWGQFQELLKSSNDPAGLGKTNELWARLAVLRERAKTISEQLDSKLVIIGEGHHHHHH” here?
Answer: soluble

Question: For “MSNAREIRSKVQSVKNTQKITGAMELVAASKMRGAIVKMNNVRPYVESANTIIKNVTAASIDYPNPYLFDRDVKRVGYIVISTDRGLCGGLNINLFKHVLKEIKNNIEDRVGVDVCVIGSKAENFFAKLKDVNIVATAHYNDKDKEGSIRAIGGAVKVMLDKFTAGEIDRLYMSSNQFVSTIKQRPRLQTLLPIQDIFSAEEIKANKEKATKGHWDYIYERDIEEVLNALFIRYIEAQVRGAILENAACEQAARMMAMKNATDNASDIIDQLKLDYNKVRQAMITQELAEICSGAAAV”, which “soluble on expression in E. coli” value is on record?
Answer: not soluble

Question: For “MFIKAERLLIRKFEFKDWEAVHEYTSDSDVMKYIPEGVFTEEDTRNFVNKNMGENAKNFPVILIGENILVGHIVFHKYFGEHTYEIGWVFNPKYFNKGYASEAAQATLKYGFKEMKLHRIIATCQPENTPSYRVMEKIGMRREGYFKKCIPHGNEWWDEYYYAILEEE”, which “soluble on expression in E. coli” value is on record?
Answer: soluble

Question: With “GAMGMDEGDGEGNILPIMQSIMQNLLSKDVLYPSLKEITEKYPEWLQSHRESLPPEQFEKYQEQHSVMCKICEQFEAETPTDSETTQKARFEMVLDLMQQLQDLGHPPKELAGEMPPGLNFDLDAL” as the sequence, how does the “soluble on expression in E. coli” value read?
Answer: soluble

Question: With “MGSDKIHHHHHHQQKSADVVENQFTTIKEVPITPVKDQANSGTCWSYSALGFLESEILRMGKPEVDLAEMHSVAQSYKDKGEKYVRMHGKLNFGQGGSFYDVLYVVKHYGVVPQSVMQGLNYGTKKNAHSELADGALAYLKAIVTNPNGKLTPAWKKAYDGIIDSYLGTCPETFTYEGKTYTPKSFAQYLGLNVDDYVSLTSYTHHPFYTQFALEIEDNWRGSLSYNMPINELMETMEYAINNGYSIAWGSDVSEVGFTRDGIGVLADVEGIEAKGSDQDRWVGLSRAEKQAEIIRTVNSADCPEINPTQEFRQKGYDEYSLTDDHGMVIYGIAKNQNGRKFFMVKNSWGETGKYKGIWYASYNFVAGRTMNIIVHKKAIPAAIAKKLGIRQ” as the sequence, how does the “soluble on expression in E. coli” value read?
Answer: not soluble

Question: For “LSSKYSRNTELRRVEDNDIYRLAKILDENSCWRKLMSIIPKGMDVQACSGAGCLNFPAEIKKGFKYTAQDVFQIDEAANRLPPDQSKSQMMIDEWKTSGKLNERPTVGVLLQLLVQAELFSAADFVALDFLNESTPARPVDGPGALISLELLE”, which “soluble on expression in E. coli” value is on record?
Answer: soluble

Question: Which “soluble on expression in E. coli” value does the source give for “RIETDERDSTNRASFKCPVCSSTFTDLEANQLFDPMTGTFRCTFCHTEVEEDESAMPKKDAR” here?
Answer: soluble
